Test results published in patent publication US8362216B2, “Method of detection using antibodies that specifically bind hedgehog-derived polypeptides” (The Johns Hopkins University School of Medicine, priority 1994, dated 2013).

Experiments:
[1] = system: neural and cement gland marker gene expression; experiment: Xenopus animal (blastula) cap explants / Keller sandwiches from RNA-injected embryos, RT-PCR of marker genes; format: cell-based
Method: cDNAs encoding full-length Xenopus hedgehogs, or encoding amino terminal or carboxy terminal domains linked to secretory leader sequences were transcribed in vitro to yield translatable messenger RNA. The synthetic messenger RNAs, and control mRNAs, were microinjected into the animal poles of cleavage stage Xenopus embryos, which were allowed to develop to the blastula stage, at which time the animal cap explants were prepared from the upper one fourth of the embryo. These blastula cap explants were then cultured in vitro in physiological saline in the presence or absence of the transforming growth factor beta family member, recombinant human activin A. All explants were allowed to develop until control embryos had grown to neurula stage, or to tadpole stage. Importantly, blastula caps left untreated differentiate from ectoderm into atypical epidermis. Blastula caps treated with activin differentiate into mesodermal and neural cell types. Thus, the question was whether hedgehog, or its proteolytic derivatives, would change the differentiation of cells away from becoming epidermis, and into another cell type. A second question was whether hedgehog can work with activin to alter the normal response of the tissue to either factor by itself.
Explants were then extracted to yield mRNA by methods commonly used by those of skill in the art, which was used as template with reverse transcriptase to yield cDNA. The cDNA was then used as template with various sets of primers for PCR for specific genes, reverse-trahscriptase-polymerase chain reaction, or RT-PCR. […] Thus, the darker bands correspond to a greater level of the specific mRNA.
(A) Isolation of dorsal explants from injected embryos for the preparation of Keller sandwiches (Keller and Danilchik, 1988; Doniach, et al, 1992; redrawn from Doniach, 1993). (B) Keller sandwiches were made from uninjected (lanes 1 and 2) and X-bhh-injected (lanes 3 and 4) embroys, total RNA was isolated when control embryos reached stage 20, and RT-PCR was used to analyze the expression of XAG-1 and neural markers. XAG-1 is a cement gland marker, XANF-2 is an anterior pituitary marker, Otx-A is a forebrain marker, En-2 demarcates the midbrain-hindbrain boundary, Krox-20 marks rhombomeres 3 and 5 of the hindbrain and X/Hbox-6 is a spinal cord marker. N-CAM is a general neural marker whose expression is not restricted along the anteroposterior axis. […] Note that expression of XAG-1 and anterior neural markers is stimulated by X-bhh treatment, whereas expression of posterior neural markers is suppressed.

[2] = target: T1, in-vitro translated Hh protein (Drosophila melanogaster, UniProt Q02936); experiment: Proteinase inhibitor studies on auto-proteolysis of in vitro translated Hh protein; format: biochemical; conditions: inhibitor added to translation reaction
T1 construct: The full length form of the hh protein (F) migrates with a mobility corresponding to a relative molecular mass of 46 kD; made in house; host or cells: cell-free: TNT coupled transcription-translation system (Promega)
T1 sequence (Q02936 1-471): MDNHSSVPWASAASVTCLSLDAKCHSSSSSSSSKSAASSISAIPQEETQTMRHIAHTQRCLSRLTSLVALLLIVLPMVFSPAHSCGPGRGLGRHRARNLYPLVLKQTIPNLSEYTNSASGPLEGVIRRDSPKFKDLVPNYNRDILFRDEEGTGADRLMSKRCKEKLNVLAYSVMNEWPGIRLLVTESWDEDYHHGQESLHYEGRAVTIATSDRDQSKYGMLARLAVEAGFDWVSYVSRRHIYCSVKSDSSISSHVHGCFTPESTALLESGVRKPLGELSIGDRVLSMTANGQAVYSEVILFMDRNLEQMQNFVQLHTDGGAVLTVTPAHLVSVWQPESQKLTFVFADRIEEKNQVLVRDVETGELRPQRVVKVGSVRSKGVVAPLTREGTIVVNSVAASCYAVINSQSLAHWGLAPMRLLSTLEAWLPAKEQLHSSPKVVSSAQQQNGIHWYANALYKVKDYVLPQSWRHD
Method: In some cases the effectiveness of an inhibitor was assayed by determining if addition of an inhibitor to a completed translation reaction will inhibit the self-processing that normally continues to occur.

[3] = Solubility and proteolytic stability of purified Hh carboxy-terminal fragments; format: physicochemical; conditions: purified protein
Method: Protein expression and purification: Drosophila melanogaster Hh protein in which most of the amino-terminai signaling domain and signal sequence have been replaced by a hexa-histidine tag (His6Hh-C25) was expressed as previously described (Porter et al., 1995). SeMet His6Hh-C25 was prepared by expression in E. coli strain B834 (DE3) pLysS, a methionine auxotroph, and growth in minimal media as previously described (Leahy et al., 1994). This His6-taggcd protein was purified on a Ni^++-NTA agarose column and autocleavage stimulated by addition of 50 mM DTT. After removal of the DTT by dialysis, the cleaved protein was passed over a Ni^++-NTA agarose column and the Hh carboxy-terminal domain, Hh-C25, collected in the column run through. Hh-C25 was subjected to limited proteolysis by overnight incubation with 1:500 (w:w) subtilisin (Boehringer Mannheim) at 4° C. A protease-stable fragment of approximately 17 kDa, Hh-C17, was identified by SDS-PAGE and purified by anion-exchange chromatography utilizing a Mono-Q column (Pharmacia). The amino- and carboxy-terminal residues of Hh-C17 were determined to be Cys-258 and Ser-408, respectively, by mass spectral analysis of cyanogen bromide-cleaved fragments. Mass spectral analysis was performed as previously described (Porter et al., 1996a).
Drosophila melanogaster Hh in which the signal sequence and most of the amino-terminal signaling domain have been replaced by a hexahistidine tag was expressed in E. coli as previously described (Porter et al., 1995). Following purification with Ni^++-NTA agarose, this protein cleaves itself in vitro in the presence of either DTT or cholesterol to liberate the 25 kDa Hh-C fragment (Hh-C25, residues Cys-258 to Asp-471). […] All residues absolutely conserved in Hh-C homologues (Porter et al., 1996a), including the nematode sequences, are contained in Hh-C17. To determine if Hh-C17 retained autoprocessing activity, a mutant version of His-tagged Hh-C containing a termination codon at residue position 409 (His6Hh-C17) was expressed and assayed for autocleavage in the presence of DTT and cholesterol.

auto-proteolysis = experiment: In vitro translation of wild-type and mutant Hh proteins (mapping of auto-proteolysis); format: biochemical, Drosophila; zebrafish

Molecule: prolactin [reference compound]
- Induction of pituitary gene XANF1B [1]: does not lead to this elevated level of pituitary gene

Molecule: CC(=O)N[C@@H](CC(C)C)C(=O)N[C@@H](CC(C)C)C(=O)N[C@H](C=O)CCCNC(=N)N [leupeptin]
- Inhibition of auto-proteolysis of in-vitro translated Hh protein [2]: do not block

Molecule: Hh-C17: ~17 kDa subtilisin-stable fragment of Hh-C25, residues Cys-258 to Ser-408
- Solubility [3]: improved solubility
- Stability to proteolysis [3]: protease-stable

Molecule: CC(C)C[C@H](NC(=O)[C@H]1O[C@@H]1C(=O)O)C(=O)NCCCCN=C(N)N [E-64]
- Inhibition of auto-proteolysis of in-vitro translated Hh protein [2]: do not block

Molecule: a, anti-trypsin: proteinase inhibitor, probably α1-antitrypsin
- Inhibition of auto-proteolysis of in-vitro translated Hh protein [2]: do not block

B1: Hh-C25: 25 kDa Drosophila Hh-C fragment, residues Cys-258 to Asp-471 (protein)
chain: CFTPESTALLESGVRKPLGELSIGDRVLSMTANGQAVYSEVILFMDRNLEQMQNFVQLHTDGGAVLTVTPAHLVSVWQPESQKLTFVFADRIEEKNQVLVRDVETGELRPQRVVKVGSVRSKGVVAPLTREGTIVVNSVAASCYAVINSQSLAHWGLAPMRLLSTLEAWLPAKEQLHSSPKVVSSAQQQNGIHWYANALYKVKDYVLPQSWRHD
- Solubility [3]: poorly soluble in the absence of detergents
- Stability to proteolysis [3]: susceptible to further proteolytic breakdown when concentrated to 1 mg/ml or greater

B2: noggin: independent neural inducer (protein, UniProt P49011 20-222, looked up)
Noggin: RIDQGGCQHYLHIRPAPSENLPLVDLIEHPDPIYDPKEKDLNETLLRTLMVGHFDPNFMATILPEERLGVEDLGELDLLLRQKPSGAMPAEIKGLEFYEGLQSKKHRLSKKLRRKLQMWLWSQTFCPVLYTWNDLGTRFWPRYVKVGSCYSKRSCSVPEGMVCKAAKSMHLTILRWRCQRRVQQKCAWITIQYPVISECKCSC
- Induction of general neural gene NCAM [1]: induces the general neural gene, NCAM
- Induction of pituitary gene XANF1B [1]: able to induce pituitary gene and forebrain gene

B3: H270A: zebrafish shh protein with H270A mutation (protein, UniProt Q92008 24-418, looked up, variant H270A)
Sonic hedgehog protein: CGPGRGYGRRRHPKKLTPLAYKQFIPNVAEKTLGASGRYEGKITRNSERFKELTPNYNPDIIFKDEENTGADRLMTQRCKDKLNSLAISVMNHWPGVKLRVTEGWDEDGHHFEESLHYEGRAVDITTSDRDKSKYGTLSRLAVEAGFDWVYYESKAHIHCSVKAENSVAAKSGGCFPGSALVSLQDGGQKAVKDLNPGDKVLAADSAGNLVFSDFIMFTDRDSTTRRVFYVIETQEPVEKITLTAAALLFVLDNSTEDLHTMTAAYASSVRAGQKVMVVDDSGQLKSVIVQRIYTEEQRGSFAPVTAHGTIVVDRILASCYAVIEDQGLAHLAFAPARLYYYVSSFLFPQNSSSRSNATLQQEGVHWYSRLLYQMGTWLLDSNMLHPLGMSVNSS
- Auto-proteolysis (processing) of in vitro translated protein (auto-proteolysis): blocked

B4: soybean trypsin inhibitor: proteinase inhibitor (protein, UniProt P01070 25-205, looked up)
Trypsin inhibitor A: DFVLDNEGNPLENGGTYYILSDITAFGGIRAAPTGNERCPLTVVQSRNELDKGIGTIISSPYRIRFIAEGHPLSLKFDSFAVIMLCVGIPTEWSVVEDLPEGPAVKIGENKDAMDGWFRLERVSDDEFNNYKLVFCPQQAEDDKCGDIGISIDHDDGTRRLVVSKNKPLVVQFQKLDKESL
- Inhibition of auto-proteolysis of in-vitro translated Hh protein [2]: do not block

B5: H273A: zebrafish twhh protein with H273A mutation (protein, UniProt Q90419 27-416, looked up, variant H273A)
Tiggy-winkle hedgehog protein: CGPGRGYGKRRHPKKLTPLAYKQFIPNVAEKTLGASGKYEGKITRNSERFKELIPNYNPDIIFKDEENTNADRLMTKRCKDKLNSLAISVMNHWPGVKLRVTEGWDEDGHHLEESLHYEGRAVDITTSDRDKSKYGMLSRLAVEAGFDWVYYESKAHIHCSVKAENSVAAKSGGCFPGSGTVTLGDGTRKPIKDLKVGDRVLAADEKGNVLISDFIMFIDHDPTTRRQFIVIETSEPFTKLTLTAAALVFVGNSSAASGITATFASNVKPGDTVLVWEDTCESLKSVTVKRIYTEEHEGSFAPVTAHGTIIVDQVLASCYAVIENHKWAHWAFAPVRLCHKLMTWLFPARESNVNFQEDGIHWYSNMLFHIGSWLLDRDSFHPLGILHLS
- Auto-proteolysis (processing) of in vitro translated protein (auto-proteolysis): blocked

B6: activin: recombinant human activin A, transforming growth factor beta family member (protein, UniProt P08476 311-426, looked up)
Inhibin beta A chain: GLECDGKVNICCKKQFFVSFKDIGWNDWIIAPSGYHANYCEGECPSHIAGTSGSSLSFHSTVINHYRMRGHSPFANLKSCCVPTKLRPMSMLYYDDGQNIIKKDIQNMIVEECGCS
- Induction of pituitary gene XANF1B [1]: also express the pituitary gene
